Reference: the nanobody polyreactivity screen of Harvey et al. (2022)

Assay: yeast display, Sf9 membrane polyspecificity reagent, FACS + sequencing; frameworks hold sequencing errors
How it was run: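 Synthetic nanobody libraries on Saccharomyces cerevisiae BJ5465 were galactose-induced for 36–48 hours, stained 1 hour at 4 °C with 10% biotinylated, detergent-solubilized Sf9 membrane reagent and enriched on streptavidin microbeads. FACS then separated cells into low and high (top ~1%) gates by anti-HA (expression) and streptavidin (reagent binding) fluorescence. Genes were colony-PCR amplified, MiSeq 2 × 250 sequenced and CDR-length filtered. A clone's polyreactivity label is that of its gate of origin.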

| Sequence | polyreactivity (PSR sort gate) |
| --- | --- |
| QVQLVESGGGLVQAGGSLRLSCAASGSTFSVYAMGWYRQAPGKERELVATISWGGGITYYADSVKGRFTISRDNAKNTVYLQMNSLKPEDTAVYYCAKELYSWLPGYRCEGTMDYWGQGTQVTVSS | high polyreactivity |
| QVQLVESGGGLVQAGGSLRLSCAASGSTFSVYAMGWYRQAPGKERELVATISWGGGITYYADSVKGRFTISRDNAKNTVYLQMNSLKPEDTAVYYCHSSKYGYWGQGTQVTVSS | high polyreactivity |
| QVQLVESGGGLVQAGGSLRLSCAASGSTFSWYAMGWYRQAPGKERELVASISFSGGDTSYADSVKGRFTISRDNAKNTVYLQMNSLKPEDTEVYYCGKEYKYETDTIFDYWGQGTQVTVSS | low polyreactivity |
| QVQLVESGGGLVQAGGSLRLSCAASGSTFSWYTMGWYRQAPGKERELVAAISWSGGRTYYADSVKGRFTISRDNAKNTVYLQMNSLKPEDTAVYYCAAYDYWYSLGDYQFYYSGQGTQVTVSS | low polyreactivity |
| QVQLVESGGGLVQAGGSLRLSCAASGSTFSYAMGWYRQAPGKERELVAAITIGGRTSYADSVKGRFTISRDNAKNTVYLQMNSLKPEDTAVYYCAAEGYYPVYYYVYYGYDYWGQGTQVTVSS | low polyreactivity |
| QVQLVESGGGLVQAGGSLRLSCAASGSTFSYNAMGWYRQAPGKERELVAAIDRSVSTNYADSVKGRFTISRDNAKNTVYLQMNSLKTEDTAVYYCNARHPTDDIVIYDYWGQGTQVTVSS | low polyreactivity |
| QVQLVESGGGLVQAGGSLRLSCAASGSTFSYNAMGWYRQAPGKERELVAAISRRGGGTYYADSVKGRFTISRDKAKNTVSLHMNSLKPVDTAVYYCNADIWYKTYDYWGQGTQVTVSS | low polyreactivity |
| QVQLVESGGGLVQAGGSLRLSCAASGSTFSYNAMGWYRQAPGKERELVAAITSTGRTYYADSVKGRFTITRDNAKNTVYLQMISLKPEDTAGYYCNKVYYRFYSADFGYGWYLRYDYWGQGTQVTVSS | high polyreactivity |
| QVQLVESGGGLVQAGGSLRLSCAASGSTFSYNMGWYRQAPGKERELVAAISGSGGSTYADSVKGRFTISRDNAKNTVYLQMNSLKPEDTAVYYCATVRYWVHEYGYWGQGTQVTVSS | high polyreactivity |
| QVQLVESGGGLVQAGGSLRLSCAASGSTFSYYAMGWYRQAPGKERELVAAITRGGSTYYADSVKGRFTISRDNAKNTVYLQMNSLKPEDTAVYYCATRTWRWGYLHYDYWGQGTQVTVSS | low polyreactivity |
| QVQLVESGGGLVQAGGSLRLSCAASGSTFSYYAMGWYRQAPGKERELVASISSGGSTNYADSVKGRFTISRANAKNTVYLQMNSLKPEDSAVYYCKADSWTVNRRYYYYRYEYWGQGSQVTVSS | low polyreactivity |
| QVQLVESGGGLVQAGGSLRLSCAASGSTFSYYAMVWYRQAPGKERELVADISSGGSTNYADSVKGRFTISRDNAKNTVYLQMNSLKPEDTAVYYCNRRYSYYDGFDYWGQGTQVTVSS | low polyreactivity |
| QVQLVESGGGLVQAGGSLRLSCAASGSTFSYYTMGWSRQAPGKERELVAAISRGGSTNYADSVKGRFTISRDNAKNTVYLQMNSLKPEDTAVYYCAAEPGRTKRYKVRMDYWGQGTQVTVSS | high polyreactivity |
| QVQLVESGGGLVQAGGSLRLSCAASGSTFSYYTMGWYRQAPGKERELVADIDSGDDTYYADSVKGRFTISRDNAKNTVYLQMNSLKPEDTAVYYCATEFNRPHFTVRVRFKYYYWGQGTQVTVSS | low polyreactivity |
| QVQLVESGGGLVQAGGSLRLSCAASGSTFSYYTMGWYRQAPGKERELVAGISYSGGRTYYADSVKGRFTSSRDKAKNTVYLQMNSLKPEDTAVYYCAKVSWRRGAFYYWGQGTQVTVSS | high polyreactivity |
| QVQLVESGGGLVQAGGSLRLSCAASGSTFSYYTMGWYRQATGKERELVAAISGSGGSTYYADSVKGRFTISRDNAKNTVYLQMKSLKPEDTAVYYCAALRAGSKCFDFWGQGTQVTVSS | high polyreactivity |
| QVQLVESGGGLVQAGGSLRLSCAASGSTFTAYAMGWYRQATREDRELVARIGGTYYADSVKGRFTISRDNAKNTVYLQMNSLKPEDTAVYYCAAEYGYDFFRSYQEYGYWGQGTQVTVSS | low polyreactivity |
| QVQLVESGGGLVQAGGSLRLSCAASGSTFTDYAMGWYRQAPGKERELVAAITNSGSSTNYEDSVKGRFTISRDNAKNTVYLQMNSLKPEDTAVYYCNASSYPWEYYYLYYGYDYWVQGTQVTVSS | low polyreactivity |
| QVQLVESGGGLVQAGGSLRLSCAASGSTFTDYAMGWYRQAPGKERELVASITSGGRTNYADSVKGRFTISRDNAKNTVYLQMNSLKPEDTAVYYCNASAWLVVARTRYGYWGQGTQVTVSS | low polyreactivity |
| QVQLVESGGGLVQAGGSLRLSCAASGSTFTDYTMGWYRQAPGKERELVARIRSRGARTYYADSVKGRFTISRDNAKNTVYLQMNSLKPEDTAVYYCAAAGVRSYAGDYWGQGTQVTVSS | high polyreactivity |
| QVQLVESGGGLVQAGGSLRLSCAASGSTFTFNAMVWYRQAPGKERELVAAITTSAGSTYYADSVKGRFTISRDNAKNTVYLQMSSLKPEDTAVYYCAARYVPPWGRRYYYWGQGTQVTVSS | high polyreactivity |
